The target of the first test is T1, MHC class I molecule B*0702 (biotin (bound to streptavidin-coated plate)).
T1 construct: iTopia monomer stripped of placeholder peptide and b2M, then reconstituted with test peptide and fresh b2M; also called B7; HLA-B7
As to the kind of experiment: iTopia peptide binding assay. The gist of the method:
(§1)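 In this kit-based ELISA, nonamer peptides are scored in duplicate for binding to plate-bound MHC under standardized optimal conditions, alongside allele-specific positive controls. Peptides classed as binders proceed to dissociation and affinity experiments.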
As for LKETEVVQG [5T4 9-mer peptide 155 (LKETEVVQG)], the “binding, % of positive control peptide” value was 3 % of positive control.
The same measure, in the same setting: in the case of ESLHLEDNA [5T4 9-mer peptide 131 (ESLHLEDNA)] it was 0 % of positive control; in that of SADLDCDPI [5T4 9-mer peptide 170 (SADLDCDPI)], 3 % of positive control.
As for IRVFLDNNP [5T4 9-mer peptide 144 (IRVFLDNNP)], the “binding, % of positive control peptide” value is 5 % of positive control.
PWVCDCHMA [5T4 9-mer peptide 148 (PWVCDCHMA)]: the “binding, % of positive control peptide” value is 0 % of positive control.
Consider NNSLVSLTY [5T4 9-mer peptide 122 (NNSLVSLTY)], for which the “binding, % of positive control peptide” value is 0 % of positive control.
The same measure, in the same setting: in the case of DRLTCAYPE [5T4 9-mer peptide 160 (DRLTCAYPE)] it was 3 % of positive control.
As to NNPWVCDCH [5T4 9-mer peptide 147 (NNPWVCDCH)], the “binding, % of positive control peptide” value was 4 % of positive control.
For HLESLHLED [5T4 9-mer peptide 130 (HLESLHLED)], the “binding, % of positive control peptide” value is 2 % of positive control.
The same measure, in the same setting: as for LELNSADLD [5T4 9-mer peptide 168 (LELNSADLD)], the figure is 3 % of positive control; as for GKDRLTCAY [5T4 9-mer peptide 159 (GKDRLTCAY)], 4 % of positive control.
Take SFRNLTHLE [5T4 9-mer peptide 127 (SFRNLTHLE)]: the “binding, % of positive control peptide” value was 0 % of positive control.
Consider DCHMADMVT [5T4 9-mer peptide 150 (DCHMADMVT)], for which the “binding, % of positive control peptide” value is 5 % of positive control.
On the same count and under the same terms, in the case of PHIRVFLDN [5T4 9-mer peptide 143 (PHIRVFLDN)] it was 10 % of positive control.
DPILPPSLQ [5T4 9-mer peptide 173 (DPILPPSLQ)]: the “binding, % of positive control peptide” value is 0 % of positive control.

The next test concerns the target T2, MHC class I molecule A*0301 (biotin (bound to streptavidin-coated plate)).
T2 construct: iTopia monomer stripped of placeholder peptide and b2M, then reconstituted with test peptide and fresh b2M; also called A3; HLA-A3
Briefly: iTopia peptide binding assay. In a few lines:
as §1
With LKETEVVQG [5T4 9-mer peptide 155 (LKETEVVQG)], the “binding, % of positive control peptide” value is 4 % of positive control.
On the same count and under the same terms, in the case of ESLHLEDNA [5T4 9-mer peptide 131 (ESLHLEDNA)] it was 0 % of positive control; in that of SADLDCDPI [5T4 9-mer peptide 170 (SADLDCDPI)], 4 % of positive control.
Take IRVFLDNNP [5T4 9-mer peptide 144 (IRVFLDNNP)]: the “binding, % of positive control peptide” value is 3 % of positive control.
Still for that read-out and setting: in the case of PWVCDCHMA [5T4 9-mer peptide 148 (PWVCDCHMA)] it was 0 % of positive control; in that of NNSLVSLTY [5T4 9-mer peptide 122 (NNSLVSLTY)], 4 % of positive control.
DRLTCAYPE [5T4 9-mer peptide 160 (DRLTCAYPE)]: the “binding, % of positive control peptide” value was 5 % of positive control.
Still for that read-out and setting: in the case of NNPWVCDCH [5T4 9-mer peptide 147 (NNPWVCDCH)] it was 16 % of positive control; in that of HLESLHLED [5T4 9-mer peptide 130 (HLESLHLED)], 2 % of positive control.
Still for that read-out and setting: in the case of LELNSADLD [5T4 9-mer peptide 168 (LELNSADLD)] it was 5 % of positive control; in that of GKDRLTCAY [5T4 9-mer peptide 159 (GKDRLTCAY)], 6 % of positive control.
Still for that read-out and setting: as for SFRNLTHLE [5T4 9-mer peptide 127 (SFRNLTHLE)], the figure is 1 % of positive control.
DCHMADMVT [5T4 9-mer peptide 150 (DCHMADMVT)]: the “binding, % of positive control peptide” value is 3 % of positive control.
Same read-out and setting: as for PHIRVFLDN [5T4 9-mer peptide 143 (PHIRVFLDN)], the figure is 3 % of positive control.
Take DPILPPSLQ [5T4 9-mer peptide 173 (DPILPPSLQ)]: the “binding, % of positive control peptide” value was 4 % of positive control.

For another test, the target named is T3, MHC class I molecule A*0101 (biotin (bound to streptavidin-coated plate)).
T3 construct: iTopia monomer stripped of placeholder peptide and b2M, then reconstituted with test peptide and fresh b2M; also called A1; HLA-A1
As to the kind of experiment: iTopia peptide binding assay. In a few lines:
as §1
For LKETEVVQG [5T4 9-mer peptide 155 (LKETEVVQG)], the “binding, % of positive control peptide” value is 0 % of positive control.
Same read-out and setting: as for ESLHLEDNA [5T4 9-mer peptide 131 (ESLHLEDNA)], the figure is 2 % of positive control; as for SADLDCDPI [5T4 9-mer peptide 170 (SADLDCDPI)], 0 % of positive control; as for IRVFLDNNP [5T4 9-mer peptide 144 (IRVFLDNNP)], 0 % of positive control.
The same measure, in the same setting: in the case of PWVCDCHMA [5T4 9-mer peptide 148 (PWVCDCHMA)] it was 0 % of positive control; in that of NNSLVSLTY [5T4 9-mer peptide 122 (NNSLVSLTY)], 8 % of positive control.
On to DRLTCAYPE [5T4 9-mer peptide 160 (DRLTCAYPE)], for which the “binding, % of positive control peptide” value is 0 % of positive control.
As to NNPWVCDCH [5T4 9-mer peptide 147 (NNPWVCDCH)], the “binding, % of positive control peptide” value is 0 % of positive control.
Take HLESLHLED [5T4 9-mer peptide 130 (HLESLHLED)]: the “binding, % of positive control peptide” value is 4 % of positive control.
Take LELNSADLD [5T4 9-mer peptide 168 (LELNSADLD)]: the “binding, % of positive control peptide” value was 0 % of positive control.
On the same count and under the same terms, as for GKDRLTCAY [5T4 9-mer peptide 159 (GKDRLTCAY)], the figure is 3 % of positive control; as for SFRNLTHLE [5T4 9-mer peptide 127 (SFRNLTHLE)], 1 % of positive control; as for DCHMADMVT [5T4 9-mer peptide 150 (DCHMADMVT)], 0 % of positive control.
Turning to PHIRVFLDN [5T4 9-mer peptide 143 (PHIRVFLDN)], the “binding, % of positive control peptide” value is 0 % of positive control.
Still for that read-out and setting: as for DPILPPSLQ [5T4 9-mer peptide 173 (DPILPPSLQ)], the figure is 0 % of positive control.

For the next test, the target named is T4, MHC class I molecule A*0201 (biotin (bound to streptavidin-coated plate)).
T4 construct: iTopia monomer stripped of placeholder peptide and b2M, then reconstituted with test peptide and fresh b2M; also called A2; HLA-A2
Briefly: iTopia peptide binding assay. In a few lines:
as §1
Take LKETEVVQG [5T4 9-mer peptide 155 (LKETEVVQG)]: the “binding, % of positive control peptide” value is 3 % of positive control.
Take ESLHLEDNA [5T4 9-mer peptide 131 (ESLHLEDNA)]: the “binding, % of positive control peptide” value was 8 % of positive control.
Take SADLDCDPI [5T4 9-mer peptide 170 (SADLDCDPI)]: the “binding, % of positive control peptide” value was 4 % of positive control.
On the same count and under the same terms, in the case of IRVFLDNNP [5T4 9-mer peptide 144 (IRVFLDNNP)] it was 4 % of positive control; in that of PWVCDCHMA [5T4 9-mer peptide 148 (PWVCDCHMA)], 0 % of positive control.
NNSLVSLTY [5T4 9-mer peptide 122 (NNSLVSLTY)]: the “binding, % of positive control peptide” value was 12 % of positive control.
DRLTCAYPE [5T4 9-mer peptide 160 (DRLTCAYPE)]: the “binding, % of positive control peptide” value was 6 % of positive control.
Consider NNPWVCDCH [5T4 9-mer peptide 147 (NNPWVCDCH)], for which the “binding, % of positive control peptide” value was 0 % of positive control.
On the same count and under the same terms, as for HLESLHLED [5T4 9-mer peptide 130 (HLESLHLED)], the figure is 3 % of positive control; as for LELNSADLD [5T4 9-mer peptide 168 (LELNSADLD)], 3 % of positive control; as for GKDRLTCAY [5T4 9-mer peptide 159 (GKDRLTCAY)], 6 % of positive control.
Same read-out and setting: as for SFRNLTHLE [5T4 9-mer peptide 127 (SFRNLTHLE)], the figure is 1 % of positive control.
On the same count and under the same terms, as for DCHMADMVT [5T4 9-mer peptide 150 (DCHMADMVT)], the figure is 7 % of positive control; as for PHIRVFLDN [5T4 9-mer peptide 143 (PHIRVFLDN)], 2 % of positive control; as for DPILPPSLQ [5T4 9-mer peptide 173 (DPILPPSLQ)], 7 % of positive control.

These data come from patent US20090280138A1 (OXFORD BIOMEDICA UK, published 2009).
